Assay results: article PMC3269792

How the values were obtained:
[1] = target: KCNQ1-KCNQ1 dimer (QQ) of the tandem EQQ construct with I145C in the distal KCNQ1 subunit (human); assay: cross-linking
[2] = target: KCNQ1-KCNQ1 dimer (QQ) of the tandem EQQ construct with I145C in the proximal KCNQ1 subunit (human); assay: cross-linking

percent cross-linking [1]: 50%
percent cross-linking [2]: 90%
Substance: KCNE1 K41C subunit of the tandem EQQ construct, cut off by HRV-3C protease (natural protein)
